Data from patent US20190112393 (published 2019).

T1: human FcγRIa (human, UniProt P12314)
T1 chain: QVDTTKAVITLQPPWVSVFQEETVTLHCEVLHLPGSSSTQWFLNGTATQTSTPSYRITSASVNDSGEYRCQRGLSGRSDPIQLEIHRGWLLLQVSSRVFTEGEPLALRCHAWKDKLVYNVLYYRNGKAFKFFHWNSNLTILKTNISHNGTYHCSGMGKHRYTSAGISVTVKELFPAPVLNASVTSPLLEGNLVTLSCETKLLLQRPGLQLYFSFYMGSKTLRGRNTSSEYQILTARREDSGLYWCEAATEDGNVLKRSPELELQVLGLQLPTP

T2: human FcγRIIb (human, UniProt P31994)
T2 chain: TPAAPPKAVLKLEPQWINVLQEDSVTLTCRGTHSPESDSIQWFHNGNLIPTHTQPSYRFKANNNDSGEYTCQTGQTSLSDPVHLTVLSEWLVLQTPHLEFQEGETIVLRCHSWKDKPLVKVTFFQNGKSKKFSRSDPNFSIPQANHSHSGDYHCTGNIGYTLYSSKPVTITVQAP


Key:
human FcγRIa = target: T1, human FcγRIa; test: SPR
human FcγRIIb = target: T2, human FcγRIIb; test: SPR
human FcRn = human FcRn (human); test: SPR, pH 6.0
Chain of human FcRn (human) (chain, as listed by the source, chain 1 of 2): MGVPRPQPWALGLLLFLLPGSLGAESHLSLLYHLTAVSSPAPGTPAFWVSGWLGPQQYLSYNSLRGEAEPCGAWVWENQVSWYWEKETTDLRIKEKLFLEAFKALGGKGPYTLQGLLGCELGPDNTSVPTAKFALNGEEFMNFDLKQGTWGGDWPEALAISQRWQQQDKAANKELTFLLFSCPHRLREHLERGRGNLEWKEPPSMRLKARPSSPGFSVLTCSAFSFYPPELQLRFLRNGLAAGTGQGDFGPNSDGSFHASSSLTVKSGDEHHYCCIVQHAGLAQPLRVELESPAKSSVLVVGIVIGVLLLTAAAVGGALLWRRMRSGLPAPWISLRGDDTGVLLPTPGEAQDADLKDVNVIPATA
Chain of human FcRn (human) (chain, as listed by the source, chain 2 of 2): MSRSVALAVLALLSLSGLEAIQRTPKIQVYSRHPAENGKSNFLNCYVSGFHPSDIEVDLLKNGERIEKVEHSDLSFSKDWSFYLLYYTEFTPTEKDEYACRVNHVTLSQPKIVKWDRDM

Binder	Kd (human FcγRIa)	Kd (human FcγRIIb)	Kd (human FcRn)
BP547 (antibody) chain 1: QVQLQESGPGLVKPSETLSLTCAVSGHSISHDHAWSWVRQPPGEGLEWIGFISYSGITNYNPSLQGRVTISRDNSKNTLYLQMNSLRAEDTAVYYCARSLARTTAMDYWGEGTLVTVSSASTKGPSVFPLAPSSKSTSGGTAALGCLVKDYFPEPVTVSWNSGALTSGVHTFPAVLQSSGLYSLSSVVTVPSSSLGTQTYICNVNHKPSNTKVDKKVEPKSCDKTHTCPPCPAPDLLGDDSVFLFPPKPKDTLMISRTPEVTCVVVDVSDEDGEVKFNWYVDGVEVHNAKTKPREEQDNSTYRVVSVLTVLHQDWLNGKEYKCKVSNKALPRPIEKTISKAKGQPREPQVYTLPPSRDELTKNQVSLTCLVKGFYPSDIAVEWESNGQPENNYKTTPPVLDSDGSFFLYSRLTVDKSRWQQGNVFSCSVMHEALHNHYTQESLSLSP chain 2: not shown	12 nM	19 nM	
BP545 (antibody) chain 1: QVQLQESGPGLVKPSETLSLTCAVSGHSISHDHAWSWVRQPPGEGLEWIGFISYSGITNYNPSLQGRVTISRDNSKNTLYLQMNSLRAEDTAVYYCARSLARTTAMDYWGEGTLVTVSSASTKGPSVFPLAPSSKSTSGGTAALGCLVKDYFPEPVTVSWNSGALTSGVHTFPAVLQSSGLYSLSSVVTVPSSSLGTQTYICNVNHKPSNTKVDKKVEPKSCDKTHTCPPCPAPDLLGDDSVFLFPPKPKDTLMISRTPEVTCVVVDVSDEDGEVKFNWYVDGVEVHNAKTKPREEQDNSTYRVVSVLTVLHQDWLNGKEYKCKVSNKALPRPIEKTISKAKGQPREPQVYTLPPSREELTKNQVSLTCLVKGFYPSDIAVEWESNGQPENNYKTTPPVLDSDGSFFLYSKLTVDKSRWQQGNVFSCSVMHEALHNHYTQESLSLSP chain 2: not shown		17 nM	
BP542 (antibody) chain 1: QVQLQESGPGLVKPSETLSLTCAVSGHSISHDHAWSWVRQPPGEGLEWIGFISYSGITNYNPSLQGRVTISRDNSKNTLYLQMNSLRAEDTAVYYCARSLARTTAMDYWGEGTLVTVSSASTKGPSVFPLAPSSKSTSGGTAALGCLVKDYFPEPVTVSWNSGALTSGVHTFPAVLQSSGLYSLSSVVTVPSSSLGTQTYICNVNHKPSNTKVDKKVEPKSCDKTHTCPPCPAPDLLGDDSVFLFPPKPKDTLMISRTPEVTCVVVDVSDEDGEVKFNWYVDGVEVHNAKTKPREEQFNSTYRVVSVLTVLHQDWLNGKEYKCKVSNKALPRPIEKTISKAKGQPREPQVYTLPPSRDELTKNQVSLTCLVKGFYPSDIAVEWESNGQPENNYKTTPPVLDSDGSFFLYSKLTVDKSRWQQGNVFSCSVMHEALHNHYTQESLSLSP chain 2: not shown		20 nM	
F1385 (antibody) chain 1: QVQLQESGPGLVKPSETLSLTCAVSGHSISHDHAWSWVRQPPGEGLEWIGFISYSGITNYNPSLQGRVTISRDNSKNTLYLQMNSLRAEDTAVYYCARSLARTTAMDYWGEGTLVTVSSASTKGPSVFPLAPSSKSTSGGTAALGCLVKDYFPEPVTVSWNSGALTSGVHTFPAVLQSSGLYSLSSVVTVPSSSLGTQTYICNVNHKPSNTKVDKKVEPKSCDKTHTCPPCPAPELLGGPSVFLFPPKPKDTLMISRTPEVTCVVVDVSHEDPEVKFNWYVDGVEVHNAKTKPREEQYNSTYRVVSVLTVLHQDWLNGKEYKCKVSNKALPAPIEKTISKAKGQPREPQVYTLPPSRDELTKNQVSLTCLVKGFYPSDIAVEWESNGQPENNYKTTPPVLDSDGSFFLYSKLTVDKSRWQQGNVFSCQVLHEALHSHYTQKSLSLSP chain 2: DIQMTQSPSSLSASVGDSVTITCQASTDISSHLNWYQQKPGKAPELLIYYGSHLLSGVPSRFSGSGSGTDFTFTISSLEAEDAATYYCGQGNRLPYTFGQGTKVEIERTVAAPSVFIFPPSDEQLKSGTASVVCLLNNFYPREAKVQWKVDNALQSGNSQESVTEQDSKDSTYSLSSTLTLSKADYEKHKVYACEVTHQGLSSPVTKSFNRGEC			77 nM
F1392 (antibody) chain 1: QVQLQESGPGLVKPSETLSLTCAVSGHSISHDHAWSWVRQPPGEGLEWIGFISYSGITNYNPSLQGRVTISRDNSKNTLYLQMNSLRAEDTAVYYCARSLARTTAMDYWGEGTLVTVSSASTKGPSVFPLAPSSKSTSGGTAALGCLVKDYFPEPVTVSWNSGALTSGVHTFPAVLQSSGLYSLSSVVTVPSSSLGTQTYICNVNHKPSNTKVDKKVEPKSCDKTHTCPPCPAPELLGGPSVFLFPPKPKDTLMISRTPEVTCVVVDVSHEDPEVKFNWYVDGVEVHNAKTKPREEQYNSTYRVVSVLTVLHQDWLNGKEYKCKVSNKALPAPIEKTISKAKGQPREPQVYTLPPSRDELTKNQVSLTCLVKGFYPSDIAVEWESNGQPENNYKTTPPVLDSDGSFFLYSKLTVDKSRWQQGNVFSCSVLHEALHSHKTQKSLSLSP chain 2: DIQMTQSPSSLSASVGDSVTITCQASTDISSHLNWYQQKPGKAPELLIYYGSHLLSGVPSRFSGSGSGTDFTFTISSLEAEDAATYYCGQGNRLPYTFGQGTKVEIERTVAAPSVFIFPPSDEQLKSGTASVVCLLNNFYPREAKVQWKVDNALQSGNSQESVTEQDSKDSTYSLSSTLTLSKADYEKHKVYACEVTHQGLSSPVTKSFNRGEC			270 nM
F1388 (antibody) chain 1: QVQLQESGPGLVKPSETLSLTCAVSGHSISHDHAWSWVRQPPGEGLEWIGFISYSGITNYNPSLQGRVTISRDNSKNTLYLQMNSLRAEDTAVYYCARSLARTTAMDYWGEGTLVTVSSASTKGPSVFPLAPSSKSTSGGTAALGCLVKDYFPEPVTVSWNSGALTSGVHTFPAVLQSSGLYSLSSVVTVPSSSLGTQTYICNVNHKPSNTKVDKKVEPKSCDKTHTCPPCPAPELLGGPSVFLFPPKPKDTLMISRTPEVTCVVVDVSHEDPEVKFNWYVDGVEVHNAKTKPREEQYNSTYRVVSVLTVLHQDWLNGKEYKCKVSNKALPAPIEKTISKAKGQPREPQVYTLPPSRDELTKNQVSLTCLVKGFYPSDIAVEWESNGQPENNYKTTPPVLDSDGSFFLYSKLTVDKSRWQQGNVFSCSVLHEALHSHFTQKSLSLSP chain 2: DIQMTQSPSSLSASVGDSVTITCQASTDISSHLNWYQQKPGKAPELLIYYGSHLLSGVPSRFSGSGSGTDFTFTISSLEAEDAATYYCGQGNRLPYTFGQGTKVEIERTVAAPSVFIFPPSDEQLKSGTASVVCLLNNFYPREAKVQWKVDNALQSGNSQESVTEQDSKDSTYSLSSTLTLSKADYEKHKVYACEVTHQGLSSPVTKSFNRGEC			80 nM
F1380 (antibody) chain 1: QVQLQESGPGLVKPSETLSLTCAVSGHSISHDHAWSWVRQPPGEGLEWIGFISYSGITNYNPSLQGRVTISRDNSKNTLYLQMNSLRAEDTAVYYCARSLARTTAMDYWGEGTLVTVSSASTKGPSVFPLAPSSKSTSGGTAALGCLVKDYFPEPVTVSWNSGALTSGVHTFPAVLQSSGLYSLSSVVTVPSSSLGTQTYICNVNHKPSNTKVDKKVEPKSCDKTHTCPPCPAPELLGGPSVFLFPPKPKDTLMISRTPEVTCVVVDVSHEDPEVKFNWYVDGVEVHNAKTKPREEQYNSTYRVVSVLTVLHQDWLNGKEYKCKVSNKALPAPIEKTISKAKGQPREPQVYTLPPSRDELTKNQVSLTCLVKGFYPSDIAVEWESNGQPENNYKTTPPVLDSDGSFFLYSKLTVDKSRWQQGNVFSCDVLHEALHSHYTQKSLSLSP chain 2: DIQMTQSPSSLSASVGDSVTITCQASTDISSHLNWYQQKPGKAPELLIYYGSHLLSGVPSRFSGSGSGTDFTFTISSLEAEDAATYYCGQGNRLPYTFGQGTKVEIERTVAAPSVFIFPPSDEQLKSGTASVVCLLNNFYPREAKVQWKVDNALQSGNSQESVTEQDSKDSTYSLSSTLTLSKADYEKHKVYACEVTHQGLSSPVTKSFNRGEC			73 nM
